Assay results from patent publication US20110195900A1, “PEPTIDIC PTH RECEPTOR AGONISTS” (FERRING B.V., priority 2008, published 2011).
Starred links: 1 amine or outer side, 2 acyl side, 3 side chain; linkers in the order of their positions; H or OH if unused. Non-standard residues stand in square brackets, D forms with d. No end group written: not given here. hSer(OMe) = COCC[C@H](N[*:1])C(=O)[*:2]; 1Nal = N[C@@H](Cc1cccc2ccccc12)C(=O)O; β3hI = CC[C@H](C)[C@H](N)CC(=O)O; β3hE = N[C@@H](CCC(=O)O)CC(=O)O; Nle = CCCC[C@H](N)C(=O)O; β3hA = C[C@H](N)CC(=O)O; Aib = CC(C)(N)C(=O)O; βAla = NCCC(=O)O

Tests used:
[1] = target: human parathyroid hormone receptor 1 (human, UniProt Q03431); test: cell-based or functional assay
[2] = target: human parathyroid hormone receptor 2 (human, UniProt P49190); test: cell-based or functional assay

| Binder | hPTHR-1 EC50 (nM), CRE-luciferase reporter gene assay [1] [nM] | hPTHR-2 EC50 (nM), luciferase reporter gene assay [2] [nM] |
| --- | --- | --- |
| SVSEIQL[Nle]HNLGKHLNS[Nle][β3hE]RVE[1Nal]LRKLLQDVHNF-NH2 (N-terminus assumed; SMILES CCCC[C@H](NC(=O)[C@H](CO)NC(=O)[C@H](CC(N)=O)NC(=O)[C@H](CC(C)C)NC(=O)[C@H](Cc1c[nH]cn1)NC(=O)[C@H](CCCCN)NC(=O)CNC(=O)[C@H](CC(C)C)NC(=O)[C@H](CC(N)=O)NC(=O)[C@H](Cc1c[nH]cn1)NC(=O)[C@H](CCCC)NC(=O)[C@H](CC(C)C)NC(=O)[C@H](CCC(N)=O)NC(=O)[C@@H](NC(=O)[C@H](CCC(=O)O)NC(=O)[C@H](CO)NC(=O)[C@@H](NC(=O)[C@@H](N)CO)C(C)C)[C@@H](C)CC)C(=O)N[C@@H](CCC(=O)O)CC(=O)N[C@@H](CCCNC(=N)N)C(=O)N[C@H](C(=O)N[C@@H](CCC(=O)O)C(=O)N[C@@H](Cc1cccc2ccccc12)C(=O)N[C@@H](CC(C)C)C(=O)N[C@@H](CCCNC(=N)N)C(=O)N[C@@H](CCCCN)C(=O)N[C@@H](CC(C)C)C(=O)N[C@@H](CC(C)C)C(=O)N[C@@H](CCC(N)=O)C(=O)N[C@@H](CC(=O)O)C(=O)N[C@H](C(=O)N[C@@H](Cc1c[nH]cn1)C(=O)N[C@@H](CC(N)=O)C(=O)N[C@@H](Cc1ccccc1)C(N)=O)C(C)C)C(C)C) [[Nle^8,18, β-hGlu^19, 1-Nal^23, Leu^27] hPTH (1-34)-NH2] | 0.32 | 29 |
| [Aib]VSEIQL[Nle]HNLGKHLN[βAla][hSer(OMe)]ERVE[1Nal]LRKLLQDVHNF-NH2 [[Aib^1, Nle^8, β-Ala^17, hSer(OMe)^18, 1-Nal^23, Leu^27] hPTH (1-34)-NH2] | 0.06 | 49 |
| SVSEIQL[hSer(OMe)]HNLGKHLN[βAla][hSer(OMe)]ERVE[1Nal]LRKLLQDVHNF-NH2 [[hSer(OMe)^8,18, β-Ala^17, 1-Nal^23, Leu^27] hPTH(1-34)-NH2] | 0.88 | > 270 |
| SVSEIQL[Nle]HELGKHLNS[β3hI]ERVE[1Nal]LRKLLQDVHNF-NH2 [[Nle^8, Glu^10, β-hIle^18, 1-Nal^23, Leu^27] hPTH (1-34)-NH2] | 0.13 | 3 |
| SVSEIQL[Nle]HNLGKHLNS[β3hI]ERVE[1Nal]LRKLLQSVHNF-NH2 [[Nle^8, β-hIle^18, 1-Nal^23, Leu^27, Ser^30] hPTH (1-34)-NH2] | 0.19 | 19 |
| SVSEIQL[Nle]HNLGKHLNS[β3hI]ERVE[1Nal]LRKLLQDVHKF-NH2 [[Nle^8, β-hIle^18, 1-Nal^23, Leu^27, Lys^33] hPTH (1-34)-NH2] | 0.15 | 32 |
| [Aib]VSEIQL[Nle]HNLGKHLN[βAla][Nle]ERVE[1Nal]LRKLLQDVHNF-NH2 [[Aib^1, Nle^8,18, β-Ala^17, 1-Nal^23, Leu^27] hPTH (1-34)-NH2] | 0.06 | 31 |
| SVSEIQL[Nle]HNL[Aib][Aib]HLNS[β3hI]ERVE[1Nal]LRKLLQDVHNF-NH2 [[Nle^8, Aib^12,13, β-hIle^18, 1-Nal^23, Leu^27] hPTH (1-34)-NH2] | 0.25 | 34 |
| SVSEIQL[Nle]HNLGKHLNS[β3hI]ERVE[1Nal]LRKLLQRVHNF-NH2 [[Nle^8, β-hIle^18, 1-Nal^23, Leu^27, Arg^30] hPTH (1-34)-NH2] | 0.18 | 7 |
| SVSEIQL[Nle]HNLGKHLNS[β3hI]ERVE[1Nal]LRKLLQDVHNF-NH2 [[Nle^8, β-hIle^18, 1-Nal^23, Leu^27] hPTH (1-34)-NH2] | 0.14 | 32 |
| SVSEIQL[Nle]HNLGKHLN[βAla][hSer(OMe)]ERVE[1Nal]LRKLLQDVHNF-NH2 [[Nle^8, β-Ala^17, hSer(OMe)^18, 1-Nal^23, Leu^27] hPTH (1-34)-NH2] | 0.13 | 93 |
| SVSEIQL[Nle]HNLGKHLNS[β3hA]ERVE[1Nal]LRKLLQDVHNF-NH2 [[Nle^8, β-hAla^18, 1-Nal^23, Leu^27] hPTH (1-34)-NH2] | 0.22 | 61 |
| SVSEIQL[Nle]HNLGKHLNS[β3hI]ERVE[1Nal]LRKLLQDVHEF-NH2 [[Nle^8, β-hIle^18, 1-Nal^23, Leu^27, Glu^33] hPTH (1-34)-NH2] | 0.12 | 41 |
| SVSEIQL[Nle]HNLGKHLSS[β3hI]ERVE[1Nal]LRKLLQDVHNF-NH2 [[Nle^8, Ser^16, β-hIle^18, 1-Nal^23, Leu^27] hPTH (1-34)-NH2] | 0.19 | 20 |
| SVSEIQLXHNLGXHLNSXERVEXLRKLLQDVHNF (Nle^8, Aib^13, β-hIle^18, 1-Nal^23, C-terminal NH2 (amide)) [[Nle^8, Aib^13, β-hIle^18, 1-Nal^23, Leu^27] hPTH (1-34)-NH2] | 0.14 | 68 |
| SVSEIQL[Nle]HNLGKHLNS[β3hI]ERVE[1Nal]LRKLLQHVHNF-NH2 [[Nle^8, β-hIle^18, 1-Nal^23, Leu^27, His^30] hPTH (1-34)-NH2] | 0.18 | 13 |
| SVSEIQL[Nle]HNLGKHLNS[β3hI]ERVE[1Nal]LRKLLQDVHNE-NH2 [[Nle^8, β-hIle^18, 1-Nal^23, Leu^27, Glu^34] hPTH (1-34)-NH2] | 0.12 | 57 |
| SVSEIQL[Nle]HNLGKHLN[βAla][Nle]ERVE[1Nal]LRKLLQDVHNF-NH2 [[Nle^8,18, β-Ala^17, 1-Nal^23, Leu^27] hPTH (1-34)-NH2] | 0.12 | 47 |
| SVSEIQL[Nle]HSLGKHLNS[β3hI]ERVE[1Nal]LRKLLQDVHNF-NH2 [[Nle^8, Ser^10, β-hIle^18, 1-Nal^23, Leu^27] hPTH (1-34)-NH2] | 0.18 | 17 |
| [Aib]VSEIQL[Nle]HSLGKHLKS[β3hI]ERVE[1Nal]LRKLLQRVHEE-NH2 [[Aib^1, Nle^8, Ser^10, Lys^16, β-hIle^18, 1-Nal^23, Leu^27, Arg^30, Glu^33, Glu^34] hPTH (1-34)-NH2] | 0.04 | 4 |
| SVSEIQL[Nle]HNLGKHLKS[β3hI]ERVE[1Nal]LRKLLQDVHNF-NH2 [[Nle^8, Lys^16, β-hIle^18, 1-Nal^23, Leu^27] hPTH (1-34)-NH2] | 0.08 | 30 |
| SVSEIQL[Nle]HNLGKHLNS[β3hI]ERVE[1Nal]LRKLLQDVHNK-NH2 [[Nle^8, β-hIle^18, 1-Nal^23, Leu^27, Lys^34] hPTH (1-34)-NH2] | 0.1 | 17 |
| SVSEIQL[Nle]HNLGKHLES[β3hI]ERVE[1Nal]LRKLLQDVHNF-NH2 [[Nle^8, Glu^16, β-hIle^18, 1-Nal^23, Leu^27] hPTH (1-34)-NH2] | 0.16 | 37 |
| SVSEIQL[Nle]HNL[Aib]KHLNS[β3hI]ERVE[1Nal]LRKLLQDVHNF-NH2 [[Nle^8, Aib^12, β-hIle^18, 1-Nal^23, Leu^27] hPTH (1-34)-NH2] | 0.23 | 13 |
